Molecular target: Flt1/VEGFR1 (human) (UniProt P17948)
Assay: cell-based or functional assay

Chain of UniProt P17948 (P17948 27-1338): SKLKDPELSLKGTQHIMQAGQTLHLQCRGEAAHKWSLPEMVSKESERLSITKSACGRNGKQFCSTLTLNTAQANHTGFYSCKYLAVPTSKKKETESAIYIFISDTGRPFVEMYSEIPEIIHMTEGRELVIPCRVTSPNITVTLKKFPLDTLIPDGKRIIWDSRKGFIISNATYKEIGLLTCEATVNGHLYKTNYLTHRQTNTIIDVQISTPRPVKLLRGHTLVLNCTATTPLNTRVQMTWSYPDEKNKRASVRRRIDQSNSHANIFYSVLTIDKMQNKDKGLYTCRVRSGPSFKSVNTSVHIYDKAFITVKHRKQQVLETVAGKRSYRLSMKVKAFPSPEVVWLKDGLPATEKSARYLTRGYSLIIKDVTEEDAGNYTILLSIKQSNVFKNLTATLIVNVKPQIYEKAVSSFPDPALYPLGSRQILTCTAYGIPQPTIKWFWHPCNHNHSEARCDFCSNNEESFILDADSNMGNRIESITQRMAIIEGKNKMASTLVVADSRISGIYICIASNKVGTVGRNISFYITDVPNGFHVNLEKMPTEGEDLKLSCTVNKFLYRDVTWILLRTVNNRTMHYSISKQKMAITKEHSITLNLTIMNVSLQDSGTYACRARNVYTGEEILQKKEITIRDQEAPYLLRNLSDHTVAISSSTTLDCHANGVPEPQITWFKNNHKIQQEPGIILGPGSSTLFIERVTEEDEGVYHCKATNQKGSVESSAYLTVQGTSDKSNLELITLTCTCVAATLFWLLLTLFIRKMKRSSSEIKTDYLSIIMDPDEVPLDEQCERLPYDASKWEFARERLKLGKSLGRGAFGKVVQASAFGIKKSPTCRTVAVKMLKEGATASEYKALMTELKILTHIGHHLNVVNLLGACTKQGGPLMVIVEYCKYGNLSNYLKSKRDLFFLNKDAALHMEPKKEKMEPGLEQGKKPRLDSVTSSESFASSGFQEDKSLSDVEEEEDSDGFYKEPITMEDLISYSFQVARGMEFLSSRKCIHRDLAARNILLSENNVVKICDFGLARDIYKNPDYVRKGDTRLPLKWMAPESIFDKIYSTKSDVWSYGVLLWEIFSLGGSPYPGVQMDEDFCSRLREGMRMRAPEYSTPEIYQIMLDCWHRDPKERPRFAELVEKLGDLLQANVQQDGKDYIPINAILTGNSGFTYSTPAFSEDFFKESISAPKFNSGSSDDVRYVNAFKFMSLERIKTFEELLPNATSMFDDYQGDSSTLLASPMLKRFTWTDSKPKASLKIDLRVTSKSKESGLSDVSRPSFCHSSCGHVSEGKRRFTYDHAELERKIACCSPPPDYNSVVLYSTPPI

HUVEC buds containing multiple filopodia: 250%
Substance: PlGF (ligand)

From patent US7662919
